We go through one variant from paper PMC10147665.

The labels stand for the following.
B1: endogenous PDPK1 [not stated (endogenous; cell line of this co-IP not named)] / endogenous PID1 [not stated (endogenous; cell line of this co-IP not named)] (parent)
chain 1: MFSLPLSLPLCEDTAFLPSKCCSSHKTIKQARTLIMIFLASGTHFQTMLKSKLNVLTLKKEPLPAVIFHEPEAIELCTTTPLMKTRTHSGCKVTYLGKVSTTGMQFLSGCTEKPVIELWKKHTLAREDVFPANALLEIRPFQVWLHHLDHKGEATVHMDTFQVARIAYCTADHNVSPNIFAWVYREINDDLSYQMDCHAVECESKLEAKKLAHAMMEAFRKTFHSMKSDGRIHSNSSSEEVSQELESDDG
chain 2: MARTTSQLYDAVPIQSSVVLCSCPSPSMVRTQTESSTPPGIPGGSRQGPAMDGTAAEPRPGAGSLQHAQPPPQPRKKRPEDFKFGKILGEGSFSTVVLARELATSREYAIKILEKRHIIKENKVPYVTRERDVMSRLDHPFFVKLYFTFQDDEKLYFGLSYAKNGELLKYIRKIGSFDETCTRFYTAEIVSALEYLHGKGIIHRDLKPENILLNEDMHIQITDFGTAKVLSPESKQARANSFVGTAQYVSPELLTEKSACKSSDLWALGCIIYQLVAGLPPFRAGNEYLIFQKIIKLEYDFPEKFFPKARDLVEKLLVLDATKRLGCEEMEGYGPLKAHPFFESVTWENLHQQTPPKLTAYLPAMSEDDEDCYGNYDNLLSQFGCMQVSSSSSSHSLSASDTGLPQRSGSNIEQYIHDLDSNSFELDLQFSEDEKRLLLEKQAGGNPWHQFVENNLILKMGPVDKRKGLFARRRQLLLTEGPHLYYVDPVNKVLKGEIPWSQELRPEAKNFKTFFVHTPNRTYYLMDPSGNAHKWCRKIQEVWRQRYQSHPDAAVQ

Variants of B1 are the subject of the first assay. The assay can be described thus: co-immunoprecipitation (IP: HA, IB: PID1), band densitometry. Particulars: with endogenous PID1 [not stated (endogenous; cell line of this co-IP not named)]; IGF-1 + (insulin -); read off a plot.
On to chain 2 MARTTSQLFDAVPIQSSVVLCSCPSPSMVRTQTESSTPPGIPGGSRQGPAMDGTAAEPRPGAGSLQHAQPPPQPRKKRPEDFKFGKILGEGSFSTVVLARELATSREYAIKILEKRHIIKENKVPYVTRERDVMSRLDHPFFVKLYFTFQDDEKLYFGLSYAKNGELLKYIRKIGSFDETCTRFYTAEIVSALEYLHGKGIIHRDLKPENILLNEDMHIQITDFGTAKVLSPESKQARANSFVGTAQYVSPELLTEKSACKSSDLWALGCIIYQLVAGLPPFRAGNEYLIFQKIIKLEYDFPEKFFPKARDLVEKLLVLDATKRLGCEEMEGYGPLKAHPFFESVTWENLHQQTPPKLTAYLPAMSEDDEDCFGNFDNLLSQFGCMQVSSSSSSHSLSASDTGLPQRSGSNIEQYIHDLDSNSFELDLQFSEDEKRLLLEKQAGGNPWHQFVENNLILKMGPVDKRKGLFARRRQLLLTEGPHLYYVDPVNKVLKGEIPWSQELRPEAKNFKTFFVHTPNRTYYLMDPSGNAHKWCRKIQEVWRQRYQSHPDAAVQ [chain 2 Y9F Y373F Y376F], for which the response came out at 0.06.

Still in this assay, the particulars now being: with endogenous PID1 [not stated (endogenous; cell line of this co-IP not named)]; insulin + (IGF-1 -); read off a plot.
For chain 2 MARTTSQLFDAVPIQSSVVLCSCPSPSMVRTQTESSTPPGIPGGSRQGPAMDGTAAEPRPGAGSLQHAQPPPQPRKKRPEDFKFGKILGEGSFSTVVLARELATSREYAIKILEKRHIIKENKVPYVTRERDVMSRLDHPFFVKLYFTFQDDEKLYFGLSYAKNGELLKYIRKIGSFDETCTRFYTAEIVSALEYLHGKGIIHRDLKPENILLNEDMHIQITDFGTAKVLSPESKQARANSFVGTAQYVSPELLTEKSACKSSDLWALGCIIYQLVAGLPPFRAGNEYLIFQKIIKLEYDFPEKFFPKARDLVEKLLVLDATKRLGCEEMEGYGPLKAHPFFESVTWENLHQQTPPKLTAYLPAMSEDDEDCFGNFDNLLSQFGCMQVSSSSSSHSLSASDTGLPQRSGSNIEQYIHDLDSNSFELDLQFSEDEKRLLLEKQAGGNPWHQFVENNLILKMGPVDKRKGLFARRRQLLLTEGPHLYYVDPVNKVLKGEIPWSQELRPEAKNFKTFFVHTPNRTYYLMDPSGNAHKWCRKIQEVWRQRYQSHPDAAVQ [chain 2 Y9F Y373F Y376F], the response was found to be 0.06.

Staying with this assay, now noted: with endogenous PID1 [not stated (endogenous; cell line of this co-IP not named)]; no growth factor (IGF-1 -, insulin -); read off a plot.
As for chain 2 MARTTSQLFDAVPIQSSVVLCSCPSPSMVRTQTESSTPPGIPGGSRQGPAMDGTAAEPRPGAGSLQHAQPPPQPRKKRPEDFKFGKILGEGSFSTVVLARELATSREYAIKILEKRHIIKENKVPYVTRERDVMSRLDHPFFVKLYFTFQDDEKLYFGLSYAKNGELLKYIRKIGSFDETCTRFYTAEIVSALEYLHGKGIIHRDLKPENILLNEDMHIQITDFGTAKVLSPESKQARANSFVGTAQYVSPELLTEKSACKSSDLWALGCIIYQLVAGLPPFRAGNEYLIFQKIIKLEYDFPEKFFPKARDLVEKLLVLDATKRLGCEEMEGYGPLKAHPFFESVTWENLHQQTPPKLTAYLPAMSEDDEDCFGNFDNLLSQFGCMQVSSSSSSHSLSASDTGLPQRSGSNIEQYIHDLDSNSFELDLQFSEDEKRLLLEKQAGGNPWHQFVENNLILKMGPVDKRKGLFARRRQLLLTEGPHLYYVDPVNKVLKGEIPWSQELRPEAKNFKTFFVHTPNRTYYLMDPSGNAHKWCRKIQEVWRQRYQSHPDAAVQ [chain 2 Y9F Y373F Y376F], the response turned out to be 0.07.
